± gives the standard deviation of the averaged measurements.
Test system: ATP
Experiment: switch fluorescence ratio, 500 uM ATP over buffer (Cy3 cluster intensity, sum of 5 cycles each) (fold (ratio)); higher = stronger signal-on switching upon ATP binding; sequences stand for … in TCGTCGGCAGCGTCAGATGTGTATAAGAGACAGTTTTTTTTTTTTTTTTTTTTTTTTT…TC
Details: aptamer strand: ATP DNA aptamer (quencher-CACCTGGGGGAGTATTGCGGAGGAAGG + anchor), 100 nM annealed; ATP concentration: 500 uM
Method in brief: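 Per cluster, summed Cy3 intensity from the target cycles was divided by that from the buffer cycles to give the fluorescence ratio, then averaged per switch-domain sequence. Clusters outside 100-1000 RFU were excluded. The Cy3-labelled switching-strand clusters, on a modified Illumina MiSeq flow-cell, were annealed to 100 nM quencher-labelled ATP aptamer and imaged in selection buffer, then after 15 min with 500 uM ATP at 22 °C, for five cycles with NaOH stripping and re-annealing between them.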
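Also: ATP exposure 15 min at 22 °C before imaging.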

| Sequence | switch fluorescence ratio |
| --- | --- |
| AAATGGTGGG | 1.13 ± 0.16 |
| AAATGTATGT | 0.988 ± 0.037 |
| AAATGTGCTG | 1 ± 0.024 |
| AAATGTGGGG | 0.976 ± 0.049 |
| AAATGTGTAG | 0.977 ± 0.024 |
| AAATGTTCAC | 0.996 ± 0.034 |
| AAATGTTTTT | 0.999 ± 0.028 |
| AAATTAGCTT | 0.987 ± 0.084 |
| AAATTATCGG | 1 ± 0.042 |
| AAATTCAATA | 1.002 ± 0.0033 |
| AAATTCCGGG | 1.02 ± 0.035 |
| AAATTCCTAC | 1.01 ± 0.015 |
| AAATTCGAAG | 0.982 ± 0.011 |
| AAATTCGCGT | 1.01 ± 0.015 |
| AAATTCGGGG | 0.959 ± 0.037 |
| AAATTCGTTA | 0.983 ± 0.048 |
| AAATTGAACT | 1.03 ± 0.017 |
| AAATTGCGAG | 1.005 ± 0.0033 |
| AAATTGCGGG | 0.994 ± 0.048 |
| AAATTGCTTA | 1 ± 0.024 |
| AAATTGGAAG | 1.05 ± 0.078 |
| AAATTGGGAG | 1.016 ± 0.0026 |
| AAATTGTTG | 1.022 ± 0.0087 |
| AAATTTACCG | 1.05 ± 0.015 |
| AAATTTAGTA | 0.99 ± 0.018 |

| Sequence | switch fluorescence ratio |
| --- | --- |
| AAATTTTTCT | 1.05 ± 0.07 |
| AAATTTTTTT | 0.996 ± 0.054 |
| AACAAGGGGG | 1.01 ± 0.013 |
| AACACAGCTC | 1.02 ± 0.024 |
| AACACCTCTC | 1.1 ± 0.07 |
| AACACGGGTA | 1.02 ± 0.055 |
| AACAGAGTTT | 1.02 ± 0.026 |
| AACAGCGGGA | 1.08 ± 0.068 |
| AACAGCGGGC | 1.03 ± 0.084 |
| AACAGCTGTG | 0.998 ± 0.013 |
| AACAGGAAGC | 1.01 ± 0.017 |
| AACAGGGCAC | 1.018 ± 0.0051 |
| AACAGGGGGG | 1.02 ± 0.081 |
| AACAGTAGGG | 1.03 ± 0.012 |
| AACAGTGTAT | 1.01 ± 0.03 |
| AACAGTTGAA | 1.0083 ± 0.00099 |
| AACATGTTGG | 0.991 ± 0.047 |
| AACCACTCAT | 1.02 ± 0.053 |
| AACCAGTATA | 0.995 ± 0.024 |
| AACCATTTGG | 0.9825 ± 0.0046 |
| AACCGATGCT | 1.094 ± 0.005 |
| AACCGATGTG | 1.01 ± 0.037 |
| AACCGGTAAT | 1.01 ± 0.022 |
| AACCGGTTAG | 0.996 ± 0.011 |
| AACCGTAGTC | 1.15 ± 0.049 |

| Sequence | switch fluorescence ratio |
| --- | --- |
| AACCGTGTGT | 0.994 ± 0.013 |
| AACCGTTTTG | 0.979 ± 0.011 |
| AACCTGGGCC | 1.19 ± 0.099 |
| AACCTTGTCC | 1.61 ± 0.11 |
| AACCTTTTCA | 1.067 ± 0.0026 |
| AACCTTTTTA | 1.01 ± 0.045 |
| AACGAAAGGC | 1.19 ± 0.012 |
| AACGAGGGTC | 1.01 ± 0.049 |
| AACGAGTGTC | 1.09 ± 0.11 |
| AACGATCTTT | 0.9979 ± 0.0084 |
| AACGCGCGCC | 1.01 ± 0.05 |
| AACGCGGTAT | 1.03 ± 0.095 |
| AACGGAGTGG | 1 ± 0.042 |
| AACGGATCGG | 0.998 ± 0.025 |
| AACGGATGAG | 0.987 ± 0.038 |
| AACGGCCATG | 1.02 ± 0.037 |
| AACGGCGTGA | 1.08 ± 0.14 |
| AACGGCTCTT | 1.03 ± 0.074 |
| AACGGGGCTC | 1.04 ± 0.066 |
| AACGGGGGA | 0.9916 ± 0.0024 |
| AACGGGTCTA | 1.01 ± 0.035 |
| AACGGGTGCA | 0.9896 ± 0.0011 |
| AACGGTAGTG | 1.09 ± 0.03 |
| AACGGTGATT | 1.01 ± 0.07 |
| AACGGTGTTT | 1.03 ± 0.045 |

| Sequence | switch fluorescence ratio |
| --- | --- |
| AACGTCTTTG | 0.9977 ± 0.0033 |
| AACGTGTACG | 1.01 ± 0.065 |
| AACGTTAAAT | 1.01 ± 0.037 |
| AACGTTAGGG | 0.998 ± 0.029 |
| AACGTTCCTG | 1.35 ± 0.11 |
| AACGTTGGTA | 0.989 ± 0.034 |
| AACTAATCGC | 1.03 ± 0.029 |
| AACTACTTTG | 1 ± 0.03 |
| AACTAGAGTT | 0.99 ± 0.014 |
| AACTATAAAA | 1 ± 0.014 |
| AACTATCTTT | 1.04 ± 0.033 |
| AACTATGATG | 0.996 ± 0.03 |
| AACTATGGTA | 0.992 ± 0.033 |
| AACTCACTTT | 1.09 ± 0.02 |
| AACTCAGATT | 1.01 ± 0.026 |
| AACTCAGGGG | 1.29 ± 0.067 |
| AACTCATATT | 0.959 ± 0.013 |
| AACTCGACCC | 1.05 ± 0.05 |
| AACTGACGGA | 1.14 ± 0.026 |
| AACTGCAAGT | 0.993 ± 0.027 |
| AACTGCTGTA | 0.999 ± 0.02 |
| AACTGGACTT | 1.11 ± 0.042 |
| AACTGGGAGA | 0.98933 ± 0.0002 |
| AACTGGGGA | 0.967 ± 0.015 |
| AACTGGGGC | 0.959 ± 0.062 |

| Sequence | switch fluorescence ratio |
| --- | --- |
| AACTGGTTG | 0.9804 ± 0.009 |
| AACTTGGGGA | 0.9657 ± 0.0061 |
| AACTTGTCGA | 0.886 ± 0.047 |
| AACTTTGACC | 1.034 ± 0.0014 |
| AACTTTGTTT | 0.9832 ± 0.0047 |
| AAGAAAAAGG | 0.993 ± 0.036 |
| AAGAAACACA | 1.02 ± 0.038 |
| AAGAAACTTC | 1.007 ± 0.0024 |
| AAGAAATCTC | 1.04 ± 0.11 |
| AAGAAATTAC | 1.06 ± 0.028 |
| AAGAACTATA | 1.09 ± 0.023 |
| AAGAAGATCA | 0.975 ± 0.016 |
| AAGAAGGCGG | 0.9845 ± 0.0069 |
| AAGAAGGGAT | 0.953 ± 0.016 |
| AAGAATATTT | 1.01 ± 0.012 |
| AAGACAGTGC | 0.9932 ± 0.0059 |
| AAGACCGGGA | 1.01 ± 0.04 |
| AAGACGGATT | 0.9945 ± 0.0066 |
| AAGACGGGCT | 1.01 ± 0.037 |
| AAGACTTGGG | 1.05 ± 0.029 |
| AAGAGACCTT | 1.28 ± 0.026 |
| AAGAGAGGTG | 1.07 ± 0.014 |
| AAGAGATATA | 1.008 ± 0.0037 |
| AAGAGCGAGT | 1 ± 0.011 |
| AAGAGCGGGA | 0.989 ± 0.041 |

| Sequence | switch fluorescence ratio |
| --- | --- |
| AAGAGCGGTG | 0.952 ± 0.0049 |
| AAGAGGAAGG | 0.9709 ± 0.0027 |
| AAGAGGACGA | 1.01 ± 0.028 |
| AAGAGGAGCG | 0.9668 ± 0.0078 |
| AAGAGGCGCT | 0.995 ± 0.05 |
| AAGAGGCGGG | 1 ± 0.019 |
| AAGAGGGATT | 0.983 ± 0.03 |
| AAGAGGGCAT | 1.01 ± 0.022 |
| AAGAGGGGGG | 0.999 ± 0.053 |
| AAGAGGTGTT | 1.04 ± 0.071 |
| AAGAGTTGCC | 1.07 ± 0.12 |
| AAGATAACGG | 1.07 ± 0.048 |
| AAGATAATAG | 0.993 ± 0.024 |
| AAGATAGAAA | 1.01 ± 0.013 |
| AAGATATGAT | 0.989 ± 0.032 |
| AAGATCATAA | 0.994 ± 0.019 |
| AAGATGGTCA | 0.993 ± 0.036 |
| AAGATGTTGG | 1.01 ± 0.04 |
| AAGATTGGTG | 0.991 ± 0.041 |
| AAGATTGTTT | 0.986 ± 0.033 |
| AAGCAGCCGG | 0.99 ± 0.046 |
| AAGCAGCTGT | 1.01 ± 0.034 |
| AAGCAGTAGC | 1.05 ± 0.0043 |
| AAGCATCATT | 1.0176 ± 0.00039 |
| AAGCATGCTC | 1.09 ± 0.03 |

| Sequence | switch fluorescence ratio |
| --- | --- |
| AAGCCCGGGG | 1.02 ± 0.025 |
| AAGCCCTAGC | 0.976 ± 0.036 |
| AAGCCGTGTG | 0.988 ± 0.042 |
| AAGCCTTAAA | 1.06 ± 0.011 |
| AAGCGAGGTC | 1.05 ± 0.021 |
| AAGCGCCCGG | 1.05 ± 0.04 |
| AAGCGGAGGG | 1.02 ± 0.062 |
| AAGCGGGGAC | 1.07 ± 0.013 |
| AAGCGGGTTT | 0.96 ± 0.03 |
| AAGCGTGGGA | 1.02 ± 0.039 |
| AAGCGTGGGG | 1.02 ± 0.025 |
| AAGCGTTGTG | 0.9984 ± 0.008 |
| AAGCTCCTCT | 1.03 ± 0.032 |
| AAGCTGAGAA | 1.016 ± 0.0071 |
| AAGCTTCGGG | 1.06 ± 0.029 |
| AAGCTTTGTG | 0.9786 ± 0.0076 |
| AAGGAAGGGG | 1.14 ± 0.2 |
| AAGGAAGTGG | 0.99 ± 0.022 |
| AAGGAATAGG | 0.98 ± 0.016 |
| AAGGACAGGA | 1.03 ± 0.026 |
| AAGGACGCCT | 1.03 ± 0.0041 |
| AAGGAGACTA | 1.02 ± 0.05 |
| AAGGAGAGTG | 0.991 ± 0.028 |
| AAGGAGGGAT | 1 ± 0.036 |
| AAGGAGTTGC | 0.9733 ± 0.0062 |

| Sequence | switch fluorescence ratio |
| --- | --- |
| AAGGATAGAT | 0.985 ± 0.025 |
| AAGGATAGGC | 1 ± 0.013 |
| AAGGATGGGG | 0.98 ± 0.022 |
| AAGGATGTAT | 0.969 ± 0.036 |
| AAGGATTATG | 1 ± 0.07 |
| AAGGATTATT | 0.97 ± 0.024 |
| AAGGCAGGCG | 0.977 ± 0.096 |
| AAGGCATCAG | 0.9915 ± 0.0045 |
| AAGGCGAGGT | 0.994 ± 0.022 |
| AAGGCGCGTG | 1.01 ± 0.045 |
| AAGGCGTGAG | 1.02 ± 0.016 |
| AAGGCTAGGA | 1 ± 0.036 |
| AAGGCTGATG | 0.983 ± 0.017 |
| AAGGCTGTGT | 1.001 ± 0.0095 |
| AAGGCTTGAT | 0.9998 ± 0.0081 |
| AAGGCTTTTT | 0.9935 ± 0.0077 |
| AAGGGAACAA | 0.999 ± 0.048 |
| AAGGGAAGTG | 0.982 ± 0.069 |
| AAGGGAATTT | 1.17 ± 0.36 |
| AAGGGAGGCG | 1.14 ± 0.2 |
| AAGGGAGGGG | 0.987 ± 0.028 |
| AAGGGAGGTT | 1 ± 0.027 |
| AAGGGATGCT | 1 ± 0.011 |
| AAGGGCCGGG | 0.967 ± 0.029 |
| AAGGGCCTGC | 0.9723 ± 0.0039 |
